# Results taken from patent US11629367.
# Molecular target: Mouse IL-11 receptor alpha (Cat. No. MBS553276, MyBioSource, Inc.) (mouse) (UniProt Q64385)
# Assay: cell-based or functional assay
# Chain of UniProt Q64385 (Q64385 24-372): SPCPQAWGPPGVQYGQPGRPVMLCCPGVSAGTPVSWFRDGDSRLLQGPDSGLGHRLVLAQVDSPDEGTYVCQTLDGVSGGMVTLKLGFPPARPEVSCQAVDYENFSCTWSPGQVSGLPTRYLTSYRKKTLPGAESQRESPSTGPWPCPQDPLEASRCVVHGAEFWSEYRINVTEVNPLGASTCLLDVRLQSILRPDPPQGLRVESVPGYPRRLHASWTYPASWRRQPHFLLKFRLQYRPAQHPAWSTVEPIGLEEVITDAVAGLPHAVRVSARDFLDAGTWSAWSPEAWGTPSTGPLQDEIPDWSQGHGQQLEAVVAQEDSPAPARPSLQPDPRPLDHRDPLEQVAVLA
row,Substance,"EC50, 7TD1 cell proliferation assay (MTS, absorbance at 490 nM)"
1,"Reference standard of rhIL-11, derived from yeast (Hangzhou Jiuyuan Gene Engineering Company) (from UniProt P20809 23-199) (ligand)",1.1 ng/mL
2,recombinant human IL-11 (rhIL-11) expressed in Pichia pastoris and purified by the described method (from UniProt P20809 22-199) (ligand),2.2 ng/mL
